# In the RNAGym collection of RNA variant scans (doi:10.1073/pnas.2313332121):
# This sample holds only a part of the variants without activity.
# B1: TPR 5TU (parent)
# chain: GGAUCUUCUCGAUCUAACAAAAAAGACAAAUCUGCCACAAAGCUUGAGAGCAUCUUCGGAUGCAGAGGCGGCAGCCUUCGGUGGCGCGAUAGCGCCAACGUUCUCAACUAUGACACGCAAAACGCGUGCUCCGUUGAAUGGAGUUUAUCAUG
# Variants of: B1
# Assay: polymerase ribozyme fitness, log enrichment relative to wild type (log ratio); higher = more active; in vitro selection for triplet polymerase activity
# Summary of the method: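 Each subunit of a heterodimeric triplet polymerase ribozyme was represented by a PCR-built, transcribed mutant library that underwent triplicate single-round in vitro selection with frozen incubation at −7 °C. Extended constructs were recovered by gel excision, streptavidin-bead capture and RT-PCR, and Illumina sequencing of input and output libraries kept genotypes with ≥10 input reads and ≥1 read per output. Fitness is the logarithm of genotype enrichment relative to wild-type enrichment, from inverse-variance-weighted replicate averages, with a logarithm base of 2.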
row,Variant,polymerase ribozyme fitness (log ratio)
1,G80U U82C,-1.68
2,G83A A150C,-3.77
3,G83A A150U,0.356
4,G81A C85G,-1.86
5,G80C U90G,≤ -4.2
6,C79G U82A C87U C103A,≤ -4.2
7,U78C A120U G133U G141A,-3.21
8,G81C G117C A138G,-4.02
9,U82A C93U A119U U127G G143C,-4.06
10,U82C C96G A120U U127G,-2.72
11,U78A G133A U139G,≤ -4.2
12,G80A G84A C116A U135G,≤ -4.2
13,U77G C79G G83C,≤ -4.2
14,U77G G84C U148G,≤ -4.2
15,C76U C87U U102C,-1.82
16,U82G G86U U102G U130G A147U,≤ -4.2
17,G81C U102C A147G,-3.21
18,C76U U78C A106C,-1.92
19,C79G U134C U146C,-4.11
20,U78G G86U,≤ -4.2
21,G80U C114U U144C,-3.95
22,G81A A97G C125U,-0.572
23,C79U A91U C103G U135A,≤ -4.2
24,G81A A91G,-2.82

row,Variant,polymerase ribozyme fitness (log ratio)
1,U82A C118U,-0.0134
2,G81A G94A G143U,-2.83
3,U82A G126A G133C,-1.01
4,G81A C105G A121U,-1.1
5,G80A C85G,-1.38
6,G81U G84U,-2.19
7,G80A G92U,-3.2
8,G80A G92C,-0.857
9,G80A C99G,-1.02
10,C76U G83U G84U C123U,-2.49
11,U82C C96A,-0.964
12,C79U G86A C96U C149G,≤ -4.2
13,G81C G94A,-0.416
14,C76U C99G,-0.789
15,U77C C79U C132A,≤ -4.2
16,C76U C93U C105U,-0.938
17,U78G C96U A107U G141C A150G,≤ -4.2
18,G80A G126A,-0.283
19,G83A A107G G136A G140A,≤ -4.2
20,C79A C87G A113G,≤ -4.2
21,C76U U77G G81U G92A C123A,≤ -4.2
22,G81A U144C,-1.41
23,U82G G143A,-0.245
24,C79U A98G,-3.44

row,Variant,polymerase ribozyme fitness (log ratio)
1,U82G C93U C131G G140U U146A,≤ -4.2
2,C76U C93U,-2.28
3,G81A A106U,-1.09
4,G83A,-0.336
5,U77G A89C U104C,≤ -4.2
6,G83A C125A,-0.344
7,U82A C99A C118U,-1.42
8,U82C G112U G152A,-3.59
9,C79A G84A A120U U127C U144C,≤ -4.2
10,G81A A107U,-3.89
11,G81A C95U,-1.88
12,G81U U82C C95U A120U,-0.64
13,G80A G84A,-0.264
14,U77G G84A G117U U135G,≤ -4.2
15,G83A C108U C125G,-3.77
16,G81U C85U,-0.466
17,C79U G140U,-3.68
18,U82C C95G U148C,-4.02
19,U77A U134G,≤ -4.2
20,G81A G86A A97C,-0.925
21,G80U G81A A142G,-1.49
22,U78G G88U,≤ -4.2
23,G81U C85G A89C C93G,≤ -4.2
24,G80U C108G,≤ -4.2

row,Variant,polymerase ribozyme fitness (log ratio)
1,C76U G86A,-0.246
2,U77C C116U,-3.64
3,U78G C85G G140A,≤ -4.2
4,U77G G92U,-3.92
5,G81U G92C C116A G133C,-3.35
6,U77A G94A G140A,≤ -4.2
7,G81C C87A C99G,≤ -4.2
8,G81A A120U G128A,-3.29
9,G83A C95A A113U,-3.12
10,G80A A98C,-2.19
11,C79U A89C,-3.38
12,U82G G84C,-4.06
13,G81C U135C,-2.22
14,G81A C87U,-1.73
15,U78G C79U G94C A115C G143A,≤ -4.2
16,U82C U104G G117U,0.147
17,U82G C87U,-0.516
18,G80A C99G U127C,-2.19
19,C76U C95U U135C C149A,≤ -4.2
20,G81C A120G,-0.127
21,G83A A147C,0.0173
22,G81A G92A U101A,-3.21
23,U77A G88U C103G U151C,≤ -4.2
24,C76U C93G G124A C132A,≤ -4.2

row,Variant,polymerase ribozyme fitness (log ratio)
1,C76U U78A A107U G126A,≤ -4.2
2,G81C C85U A89U A142G,-1.67
3,G81A G86A C99G,-1.98
4,C76U C118A,-2.21
5,U77A G86A C116G A121C,≤ -4.2
6,G80A A142U U144C,-3.55
7,G80A A91C A120G,≤ -4.2
8,G81A G86C A89U C125U C131U A137G,-4.06
9,C79U U134A,-4.05
10,U82C A89U,-0.15
11,C76U U101A,-1.35
12,U77A G94C A98U,≤ -4.2
13,G83A C105U A110G U134C,-3.98
14,U82C A115G,-0.965
15,U82C C95A,-1.46
16,G81C G83U G133A,-3.88
17,U82A C93G G126U,-2.84
18,U78A A91U A138C,≤ -4.2
19,U78A C93U,≤ -4.2
20,U82A C95G C118U G126C,-2.5
21,G83A A89G U109G U130G C132G,≤ -4.2
22,C76U C116G,0.541
23,G80C G92U,-3.97
24,G81C A119U G128U,-2.99

row,Variant,polymerase ribozyme fitness (log ratio)
1,G81C G92A,-3.5
2,G80U C114U,-2.31
3,G83A C108U,-3.01
4,G81A G133C,-3.84
5,G81A G133U,-3.84
6,G80U,-0.409
7,G80A,-0.0737
8,G80C,-3.5
9,U78G U111G A113U,≤ -4.2
10,G80U A91C A106U C132G,≤ -4.2
11,U82G A91U A110U G117A,≤ -4.2
12,U82A C93U U145G,-2.53
13,C79U C85G A138G,≤ -4.2
14,G80A G88C A113U C116U U148A,≤ -4.2
15,U78G C99G C103A U109G,≤ -4.2
16,G80A C93G C96U,-3.96
17,G81U A97U C105U,0.976
18,U77C C95U G141A,≤ -4.2
19,C76U U144A,-1.08
20,G81U U82A G92A G152U,≤ -4.2
21,U77A G92U C99G,-4.06
22,G80U A91G A110G,≤ -4.2
23,U78A G81A C93G A97U U151C,≤ -4.2
24,G83A A115U,-1.25

row,Variant,polymerase ribozyme fitness (log ratio)
1,G81A C87U A97C U101A U104G C116U,-4.01
2,U82G A97G A98G C118A A119C G140C,≤ -4.2
3,C76U C93U A97U,-0.802
4,U82A A113C G117U G141C,≤ -4.2
5,C76U C96A,0.322
6,U78A C79U U82A G94U C96G G126A G141U,≤ -4.2
7,C79A C87G,≤ -4.2
8,G80C C93G,-4.2
9,G80C G88C G92A G136U,≤ -4.2
10,U77A C95U,≤ -4.2
11,G83A A106G A119C,-0.0979
12,G81C G84U,-2.44
13,G80A A89U C95U A120G,-1.11
14,U78C G84A G136U,-3.14
15,U77G G84A,≤ -4.2
16,G81C G84A A115C G133U C149U,≤ -4.2
17,C79G C85A A138G U148A,≤ -4.2
18,U82C A115G A138U,-4.19
19,C76U U139G,-0.649
20,G81U C87A A107G U144G,≤ -4.2
21,G80A C96G,-1.11
22,C76U G83C C118U,-0.363
23,U82A G83C C123U,-1.12
